{"source": "paper PMC4980223", "about": "(Immunology and cell biology, 2016)", "target": "the molecule itself", "test": "SEC"}
{"protein": "recombinant, soluble SRCR trimer (HIS6-SRCR, MARCO residues 400-520) (domain or fragment, human, UniProt Q9UEW3 400-520, looked up) GVKGSSGEQGVKGEKGERGENSVSVRIVGSSNRGRAEVYYSGTWGTICDDEWQNSDAIVFCRMLGYSKGRALYKVGAGTGQIWLDNVQCRGTESTLWSCTKNSWGHHDCSHEEDAGVECSV", "values": [{"measurement": "stoichiometry N", "value": 3}]}
